This is an account of results in article PMC3553500.

In the assay the target is GAPDH (purified recombinant, no tag named) (UniProt P04406). The assay can be described thus: ELISA. (In general: In an ELISA, binding on a coated surface is turned into a signal by an enzyme label.)

NleB-FLAG (purified) (enzyme), sequence (Q5XMK8 whole entry): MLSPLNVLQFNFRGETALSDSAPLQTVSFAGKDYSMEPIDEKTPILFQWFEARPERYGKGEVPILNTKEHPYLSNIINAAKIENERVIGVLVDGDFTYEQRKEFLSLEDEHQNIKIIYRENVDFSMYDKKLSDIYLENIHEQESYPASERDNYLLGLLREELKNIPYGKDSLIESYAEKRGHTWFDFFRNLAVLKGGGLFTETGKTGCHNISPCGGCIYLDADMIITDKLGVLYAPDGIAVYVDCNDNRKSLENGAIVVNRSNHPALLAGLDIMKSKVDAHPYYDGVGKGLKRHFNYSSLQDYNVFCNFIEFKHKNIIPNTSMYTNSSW

On to NleB-FLAG (purified) (enzyme), for which the Kd amounted to 32 µM.

What is called Kd is the equilibrium constant for the complex coming apart.
